Reference: patent US20180258175A1 (ABLEXIS, published 2018)
Changes are numbered by the printed parent chain.

B1: CCL-226A (antibody, V domains shown)
VH: QVQLQESGPGLVKPSETLSLTCTVSGASISSYYWSWIRQPPGKGLEWIGYFYYSGSTNYSPSLKSRVTFSVDTSKNQFSLKLSSVTAADTAVYFCARGKVGVPFDYWGQGTLVTVSS
VL: not shown
notes: AlivaMab chimeric IgG, human lambda LC
B2: CCL-315A (antibody, V domains shown)
VH: QVQLQESGPGLVKPSETLSLTCTVSGGSISSYYWSWIRQSPGKGLEWIGYIYYSGSTNYNPSLKSRVTISVDTSKNQFSLKLSSVTAADTAVYFCARALLTGGFAYWGQGTLVTVSS
VL: not shown
notes: as for B1
B3: CCL-338A (antibody, V domains shown)
VH: B2 VH with S40P, S56T, F94Y, L100I, T101V, G103A
VL: SYELTQPHSVSVATAQMARITCGGNNIGSKAVHWYQQKPGQDPVLVIYSDSNRPSGIPERFSGSNPGNTATLTISRIEAGDEADYYCQVWDSSSDHRVFGGGTKLTVL
notes: as for B1
B4: CCL-223A (antibody, V domains shown)
VH: QVQLQESGPGLVKPSETLSLTCTVSGGSISSYYWSWIRQPAGKGLEWIGRIYTSGSTNYNPSLKSRVSMSVDTSKNQFSLKLSSVTAADTAVYYCARERIIWFDPWGQGTLVTVSS
VL: not shown
notes: as for B1
B5: CCL-220A (antibody, V domains shown)
VH: B4 VH with W47G, S68T, I100L, I101Y, W102G, F103M, P105V, L111T
VL: not shown
notes: as for B1
B6: CCL-207A (antibody, V domains shown)
VH: B4 VH with S56T, S68T, S83N, I100V
VL: not shown
notes: as for B1
B7: CCK-408A (antibody, V domains shown)
VH: B4 VH with N60H, L63F, S68T, N76T, V85L, E98G, R99G, I101T
VL: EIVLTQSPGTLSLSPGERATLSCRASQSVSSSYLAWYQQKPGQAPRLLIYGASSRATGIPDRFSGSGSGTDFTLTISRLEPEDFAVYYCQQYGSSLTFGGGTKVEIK
notes: AlivaMab chimeric IgG, human kappa LC
B8: CCL-208A (antibody, V domains shown)
VH: QVQLVQSGAEVKKPGASVKVSCKASGYTFTDYYMHWVRQAPGQGLEWMGWINPNSGGANYAQKFQGRVTMTRDTSISIAYMELSRLRSDDTAIYYCARGRLTFFDYWGQGTLVTVSS
VL: not shown
notes: as for B1
B9: CCL-203A (antibody, V domains shown)
VH: B2 VH with S35N, S40P, V71L, F94H, A98G, L99R, T101N, G103A, A105D
VL: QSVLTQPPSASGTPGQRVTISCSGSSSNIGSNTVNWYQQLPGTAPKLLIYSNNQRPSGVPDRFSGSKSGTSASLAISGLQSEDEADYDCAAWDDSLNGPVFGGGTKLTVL
notes: as for B1
B10: CCL-349A (antibody, V domains shown)
VH: QVQLQESGPGLVKPSETLSLTCTVSGGSISIYYWNWIRQPPGKGLEWIGYIYYIGSTNYNPSLKSRVTISVDTSKNQFSLKLSSVTAADTAVYYCARGRLTYAFDIWGQGTMVTVSS
VL: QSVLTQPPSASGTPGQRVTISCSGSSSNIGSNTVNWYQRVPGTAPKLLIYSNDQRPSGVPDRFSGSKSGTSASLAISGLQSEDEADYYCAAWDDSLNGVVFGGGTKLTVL
notes: as for B1
B11: CCL-303A (antibody, V domains shown)
VH: B10 VH with I31S, N35S, I54S, Y93F, G98I, R99T, L100V, Y102S
VL: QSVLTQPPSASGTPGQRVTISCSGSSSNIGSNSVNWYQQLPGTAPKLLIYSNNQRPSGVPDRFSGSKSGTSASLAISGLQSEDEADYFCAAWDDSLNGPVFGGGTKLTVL
notes: as for B1
B12: CCL-341A (antibody, V domains shown)
VH: QVQLQESGPGLVKPSETLSLTCTVSGGSISSYYWSWIRQPAGKGLEWIGRIYTSGSTNYNPSLKSRVTMSVDTSKNQFSLKLSSVTAADTAVYYCARERLGMFFDYWGQGTLVTVSS
VL: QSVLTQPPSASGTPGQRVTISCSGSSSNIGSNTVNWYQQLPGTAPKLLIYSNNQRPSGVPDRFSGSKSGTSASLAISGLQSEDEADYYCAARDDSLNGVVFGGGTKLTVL
notes: as for B1
B13: CCL-320A (antibody, V domains shown)
VH: B12 VH with G26V, T53A, S83T, L100V, M102I, F103Y
VL: not shown
notes: as for B1
B14: CCL-344A (antibody, V domains shown)
VH: B12 VH
VL: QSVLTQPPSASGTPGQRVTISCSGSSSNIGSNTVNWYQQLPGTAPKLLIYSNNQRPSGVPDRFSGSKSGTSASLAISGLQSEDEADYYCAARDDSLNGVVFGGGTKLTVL
notes: as for B1
B15: CCL-339A (antibody, V domains shown)
VH: B12 VH with Y32N, N58K, R99G, L100I, G101V, M102G, F103A, D105H, T111A
VL: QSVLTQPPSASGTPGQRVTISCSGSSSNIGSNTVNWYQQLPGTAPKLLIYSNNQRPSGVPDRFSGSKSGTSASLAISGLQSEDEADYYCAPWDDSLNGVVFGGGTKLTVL
notes: as for B1
B16: CCL-235A (antibody, V domains shown)
VH: B12 VH with R38W, S74P, G101T, M102G, F103A, Y106I, L112M
VL: not shown
notes: as for B1
B17: CCL-301A (antibody, V domains shown)
VH: B12 VH with S56Y, T68S, M102A
VL: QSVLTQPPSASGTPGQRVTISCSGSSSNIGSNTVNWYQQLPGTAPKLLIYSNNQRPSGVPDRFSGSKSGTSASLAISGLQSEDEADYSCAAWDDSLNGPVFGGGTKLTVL
notes: as for B1
B18: CCL-253A (antibody, V domains shown)
VH: B12 VH with V85M, E98D, M102R, F103A, Y106I, L112M
VL: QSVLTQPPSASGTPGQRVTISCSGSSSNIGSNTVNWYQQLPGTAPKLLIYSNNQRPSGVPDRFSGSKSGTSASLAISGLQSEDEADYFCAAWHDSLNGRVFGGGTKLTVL
notes: as for B1
B19: CCL-322A (antibody, V domains shown)
VH: B12 VH with T57I, N58K, T68A, R99G, L100I, G101L, M102G, F103Y
VL: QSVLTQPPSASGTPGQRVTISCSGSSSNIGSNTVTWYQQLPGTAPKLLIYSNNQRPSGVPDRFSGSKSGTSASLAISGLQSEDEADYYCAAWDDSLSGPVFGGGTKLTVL
notes: as for B1
B20: CCL-314A (antibody, V domains shown)
VH: QVQLQESGPGLVKPSETLSLTCTVSGGSISSYYWSWIRQPAGKGLEWIGRIYASGGTNYNPSLKSRVTMSVDTSKNQFSLKVSSVIAADTAIYYCARNRLGIYDYWGQGSLVTVSS
VL: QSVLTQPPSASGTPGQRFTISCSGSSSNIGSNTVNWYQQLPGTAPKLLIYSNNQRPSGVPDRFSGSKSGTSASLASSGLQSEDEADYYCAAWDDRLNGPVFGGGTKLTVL
notes: as for B1
B21: CCK-410A (antibody, V domains shown)
VH: EVQLVESGGGLVQPGRSLRLSCTASGFTFGDYAMSWFRQAPGKGLEWVGFIRSKAYGGTTEYAASVKGRFTISRDDTKSIAYLQMNSLKIEDTAVHYCTREGSFGALDIWGQGIMVTVSS
VL: not shown
notes: as for B7
B22: CCL-311A (antibody, V domains shown)
VH: EVQLVQSGAEVKKPGESLKISCKGSGYSFTNYWIGWVRQMPGKGLEWMGIIYPGDSDTRYSPSFQGQVTISADISITTAYLQWSSLKASDTAMYYCARHRLGFFDYWGQGTLVTVSS
VL: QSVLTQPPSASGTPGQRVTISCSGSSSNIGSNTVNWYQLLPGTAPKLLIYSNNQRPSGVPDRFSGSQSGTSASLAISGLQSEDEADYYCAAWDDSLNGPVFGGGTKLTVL
notes: as for B1
B23: CCL-209A (antibody, V domains shown)
VH: QVQLQESGPGLVKPSETLSLTCTVSGGSISSFYWSWIRQSPGRGLEWIGYIFYSGSTKYNPSLMSRVTISADTSKNQFSLKLSSVTAADTAVYYCARGRLGNYFDYWGQGTLVTVSS
VL: not shown
notes: as for B1
B24: CCK-501A (antibody, V domains shown)
VH: EVQLVESGGGLVKPGGSLRLSCAASGFTFSNAWMNWVRQAPGKGLEWVGRINSKTDGGTTDYAAPVKGRFTISRDDSKTTLYLQMNSLKTEDTAVYYCTTDGVYPDVFDIWGQGTMVTVSS
VL: not shown
notes: as for B7
B25: CCL-324A (antibody, V domains shown)
VH: B10 VH with I31S, N35S, I51V, I54S, I69T, S83R, G98D, T101G, Y102I
VL: SSELTQDPAVSVALGQTVRITCQGDSLRSYYASWYQQKPGQAPILVIYGKNNRPSGIPDRFSGSSSGNTASLTITGAQAEDEADYYCNSQDNSGNHLVVFGRGTKLTVL
notes: as for B1
B26: CCL-201A (antibody, V domains shown)
VH: B12 VH with S35I, A41P, R50Y, I51F, T53Y, M69I, D72G, E98S, M102S, F103I
VL: not shown
notes: as for B1
B27: CCL-333A (antibody, V domains shown)
VH: EVQLVESGGGLVKPGGSLRLSCAASGFTFSYYSMNWVRQAPGKGLEWVSSISDSSDYIYYADSVKGRFTISRDNAKNSLYLQMNSLRAEDTAVYYCARGGLRFDYWGQGTLVTVSS
VL: not shown
notes: as for B1
B28: CCK-434A (antibody, V domains shown)
VH: EVQLVESGGGLVQPGGSLRLSCAASGFTFSSYDMHWVRQATGKGLEWVSAIGTAGDTYYPGSVKGRFTISRENAKNSLYLQMNSLRAGDTAVYYCARGHIVVVTAMDYWGQGTLVTVSS
VL: not shown
notes: as for B7
B29: CCL-331A (antibody, V domains shown)
VH: B4 VH with S68T, R99G, I100L, I101R, W102G
VL: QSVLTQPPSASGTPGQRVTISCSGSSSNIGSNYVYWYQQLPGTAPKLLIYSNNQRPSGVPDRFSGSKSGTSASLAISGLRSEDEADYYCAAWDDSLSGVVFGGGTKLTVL
notes: as for B1
B30: CCL-206A (antibody, V domains shown)
VH: B10 VH with I31S, N35T, I54S, S56I, I69M, V71M, K81R, L100I, T101I, Y102G
VL: not shown
notes: as for B1
B31: CCL-249A (antibody, V domains shown)
VH: B12 VH with I48V, I51L, Y52F, T86I, G101T, M102G, F103Y
VL: not shown
notes: as for B1
B32: CCL-327A (antibody, V domains shown)
VH: B12 VH with T23S, Y33H, S54G, G101T, M102G, F103Y
VL: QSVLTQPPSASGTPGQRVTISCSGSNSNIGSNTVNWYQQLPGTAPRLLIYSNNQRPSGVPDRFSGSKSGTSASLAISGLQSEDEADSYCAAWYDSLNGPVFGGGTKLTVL
notes: as for B1
B33: CCL-310A (antibody, V domains shown)
VH: EVQLVESGGGLVQPGGSLRLSCAASGFTFSNYWMRWVRQAPGKGLEWVANIKQDGSEKYYVDSVKGRFTISRDNAKYSLYLQMNSLRAEDTAVYYCARDRLGIFDYWGQGTLVTVSS
VL: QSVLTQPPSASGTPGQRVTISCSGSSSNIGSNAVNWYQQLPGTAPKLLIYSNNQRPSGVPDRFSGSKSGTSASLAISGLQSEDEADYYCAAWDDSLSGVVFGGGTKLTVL
B34: CCL-215A (antibody, V domains shown)
VH: EVQLVESGGGLVQPGGSLRLSCAASGFTFSSYSMNWVRQAPGKGLEWVSYISSSSSTIYYADSVKGRFTISSDNAKNSLYLQMDSLRDEDTAVYYCARDRLGIPFDYWGQGTLVTVSS
VL: not shown
notes: as for B1
B35: CCL-329A (antibody, V domains shown)
VH: B12 VH with L4P, S31G, K43T, P61S, L100M, G101A, M102T, F103I
VL: not shown
notes: as for B1

Target: T1, human CD115 extracellular domain (Sino Biological 10161-H08H) (human, UniProt P07333 20-517)
T1 construct: extracellular domain; bought recombinant protein; also called huCD115; hu-CD115
Experiment: ELISA, supernatant on huCD115

Row | Binder | binding result
1 | B1 | binds
2 | B2 | binds
3 | B3 | binds
4 | B4 | binds
5 | B5 | binds
6 | B6 | binds
7 | B7 | binds
8 | B8 | binds
9 | B9 | binds
10 | B10 | binds
11 | B11 | binds
12 | B12 | binds
13 | B13 | binds
14 | B14 | binds
15 | B15 | binds
16 | B16 | binds
17 | B17 | binds
18 | B18 | binds
19 | B19 | binds
20 | B20 | binds
21 | B21 | binds
22 | B22 | binds
23 | B23 | binds
24 | B24 | binds
25 | B25 | binds
26 | B26 | binds
27 | B27 | binds
28 | B28 | binds

Target: T1, human CD115 extracellular domain (Sino …)
Experiment: SPR ProteOn, supernatant mAb captured on anti-mouse IgG, Hu CD115 analyte

Row | Binder | Kd [nM] | koff [s⁻¹] | kon [M⁻¹ s⁻¹]
29 | B29 | 0.118 | 2.2e-05 | 186000
30 | B30 | 0.495 | 2.92e-05 | 59000
31 | B31 | 0.599 | 8.91e-05 | 149000
32 | B32 | 1.41 | 0.000189 | 133000
33 | B33 | 0.079 | 4.35e-06 | 50600
34 | B34 | 0.215 | 1.83e-05 | 85300
35 | B35 | 0.038 | 4.46e-06 | 118000
